# Experimental data as given in article PMC4140777, “Recognition of Bungarus multicinctus Venom by a DNA Aptamer against β-Bungarotoxin”.
# B1: βB-1 (ssDNA)
# DNA: AGCAGCACAGAGGTCAGATGGTTTTCCCCTTGTCGCTTTTGGTTCGTTCTGCCTCTATCTCCTATGCGTGCTACCGTGAA
# Biological target: α-bungarotoxin (α-BuTx) (Bungarus multicinctus, UniProt P60615 22-95)
# Assay: 20 mM HEPES pH 7.4, 150 mM NaCl, 5 mM KCl, 2 mM MgCl2, 2 mM CaCl2, room temperature
# Conditions: protein: commercial; label: 5'-FAM (FA, filter, EMSA); biotin (ELAA); stem-loop (predicted)
# α-bungarotoxin (α-BuTx), sequence (P60615 22-95): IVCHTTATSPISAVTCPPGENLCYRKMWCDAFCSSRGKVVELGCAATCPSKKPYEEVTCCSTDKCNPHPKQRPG
binder,measurement,value
B1,binding result,no binding
